Laboratory results taken from publication PMC11604724 (MedComm, 2024).

Legend:
[1] = biological target: Horseradish peroxidase (HRP)‐labeled NTD protein (SARS-CoV-2, WT assumed, UniProt P0DTC2, horseradish peroxidase (HRP) label); assay: ELISA; details: both partners purified
[2] = biological target: PNGase F‐treated NTD protein (SARS-CoV-2 WT, UniProt P0DTC2, N-linked glycans removed with PNGase F (nearly complete deglycosylation)); assay: ELISA; details: both partners purified
[3] = biological target: SARS‐CoV‐2 N‐terminal domain (NTD) protein (SARS-CoV-2 WT, UniProt P0DTC2, N-linked glycans (complex glycosylation, migrates at 40-70 kDa)); assay: ELISA; details: both partners purified
[4] = biological target: SARS‐CoV‐2 (WT) spike expressed on HEK293T cells (SARS-CoV-2, UniProt P0DTC2); assay: flow cytometry on cells; details: one partner purified

Measured: binding result

B1: mAb 3711 (antibody, V domains shown)
VH: EVQLVESGGGLVKPGRSLRLSCAASGFTFSDYYMSWIRQAPGKGLEWVSYISSSGSTIYYADSVRGRFTISRDNAKNSLYLQMNTLRAEDTAVYYCARGGWELRSLAGGYYGMDVWGQGTTVTVSS
VL: DIVMTQTPFTLSASVGDRVTITCRASQGIRNDLGWYQQKPGKAPKCLIYAASSLLSGVPSRFSGSGSGTEFTLTISSLQPEDFATYYCLQHNSYPWTFGQGTKLEIK
binds: all assays above
